Non-standard residues stand in square brackets, D forms with d. No end group written: not given here. Aib = CC(C)(N)C(=O)O
What was measured:
[1] = target: T1, HLA-A2.1 molecule (purified) (human); experiment: peptide binding to purified HLA-A2.1 molecule
T1 construct: limits of the heavy chain and presence of b2m in the preparation are not described; also called HLA-A*0201; prototype HLA-A2.1 molecule

[2] = target: HLA-A2 supertype alleles; experiment: peptide binding to purified MHC molecules of the HLA-A2 supertype; count of alleles bound

| Binder | binding result [1] | No. A2 Alleles Crossbound [2] |
| --- | --- | --- |
| IMIGHLVGV (also called peptide 1352.02) [CEA.691H5] | binds | 5 alleles |
| KVAEIVHFL (also called peptide 1352.03) [MAGE-3.112I5] | binds | 5 alleles |
| KL[Aib]PVQLWV (not fully specified) [p53.139L2B3] |  | 4 alleles |
